Among the data in the Immune Epitope Database (IEDB) are Kd values, retold here.

The target of assay [1] is HLA-B*27:03. The experiment in a line: IEDB peptide-MHC binding, purified MHC/direct/fluorescence; filed as Kd, often an IC50 or EC50 that approximates it; ≥ and ≤ were set here for values at or beyond the usual limits of such assays.
For assay [2], the target named is HLA-B*18:01. The assay is described as above.
For assay [3], the target named is HLA-A*03:01. Described as above.
Assay [4] has as its target HLA-A*26:01. The description is as above.
The target of assay [5] is HLA-A*02:12. The description is as above.
For assay [6], the target named is HLA-A*02:16. The assay is described as above.
The target of assay [7] is HLA-B*57:01. Described as above.
Assay [8] concerns the target HLA-A*02:19. The description is as above.
Assay [9] has as its target HLA-A*24:03. The assay is described as above.
In assay [10] the target is HLA-A*69:01. The description is as above.
The target in assay [11] is HLA-A*68:02. The assay is described as above.
The target of assay [12] is HLA-B*39:01. Described as above.
In assay [13] the target is HLA-A*02:03. Described as above.
The target in assay [14] is HLA-A*02:11. The assay is described as above.
Assay [15] has as its target HLA-B*15:17. The description is as above.
Assay [16] deals with HLA-A*02:01. Described as above.
Assay [17] deals with HLA-B*46:01. The description is as above.
Assay [18] deals with HLA-B*48:01. As to the kind of experiment: IEDB peptide-MHC binding, purified MHC/competitive/fluorescence; filed as Kd, often an IC50 or EC50 that approximates it; ≥ and ≤ were set here for values at or beyond the usual limits of such assays.
Assay [19] addresses HLA-A*30:01. Described as above. The note with it: source organism: Influenza A virus (A/X-31(H3N2)).
The target of assay [20] is HLA-B*27:05. The experiment in a line: IEDB peptide-MHC binding, purified MHC/direct/fluorescence; filed as Kd, often an IC50 or EC50 that approximates it; ≥ and ≤ were set here for values at or beyond the usual limits of such assays.
Assay [21] addresses HLA-B*08:03. The description is as above. The note with it: source organism: Influenza A virus(A/swine/Shandong/fZC/2003(H9N2)).
The target of assay [22] is HLA-B*40:01. Described as above.
Assay [23] concerns the target HLA-B*58:01. The assay is described as above.
Assay [24] deals with HLA-A*01:01. The description is as above.
Assay [25] deals with HLA-B*15:01. The assay is described as above.
Assay [26] concerns the target HLA-B*07:02. The description is as above.
Assay [27] deals with HLA-B*51:01. The description is as above.
Assay [28] addresses HLA-A*29:02. The assay is described as above. The note with it: source organism: Bacillus anthracis str. 'Ames Ancestor'.
Assay [29] has as its target HLA-A*02:03. The experiment in a line: IEDB peptide-MHC binding, purified MHC/competitive/fluorescence; filed as Kd, often an IC50 or EC50 that approximates it; ≥ and ≤ were set here for values at or beyond the usual limits of such assays. The note with it: source organism: Mycobacterium tuberculosis variant bovis BCG str. Pasteur 1173P2.
The target in assay [30] is HLA-A*31:01. The experiment in a line: IEDB peptide-MHC binding, purified MHC/direct/fluorescence; filed as Kd, often an IC50 or EC50 that approximates it; ≥ and ≤ were set here for values at or beyond the usual limits of such assays. The note with it: source organism: Mycobacterium tuberculosis.
For assay [31], the target named is HLA-A*11:01. The assay is described as above. The note with it: source organism: Mycobacterium tuberculosis.
Assay [32] concerns the target HLA-B*15:09. The assay is described as above. The note with it: source organism: Mycobacterium tuberculosis str. Haarlem.
In assay [33] the target is HLA-B*08:01. The description is as above. The note with it: source organism: Mycobacterium tuberculosis str. Haarlem.
For assay [34], the target named is HLA-B*48:01. The description is as above. The note with it: source organism: Mycobacterium tuberculosis.
Assay [35] deals with HLA-B*44:02. The assay is described as above. The note with it: source organism: Mycobacterium tuberculosis.
Where [36] appears, read: source organism: Burkholderia mallei ATCC 23344.
Setting [37] is: source organism: Influenza A virus (A/duck/Vietnam/15/2003(H5N1)).
[38] abbreviates: source organism: Encephalitozoon cuniculi GB-M1.
[39] abbreviates: source organism: Bacillus anthracis str. 'Ames Ancestor'.
Where [40] appears, read: source organism: Mycobacterium tuberculosis.
Where [41] appears, read: source organism: Mycobacterium tuberculosis str. Haarlem.
Setting [42] is: source organism: Vibrio vulnificus YJ016.

Take LVTGAGSGF: the Kd in assay [1] (setting [36]), in assay [2] (setting [36]), in assay [3] (setting [36]), in [4] (setting [36]), in [5] (setting [36]) and in assay [6] (setting [36]) was at least 20 µM throughout. For the same sequence, the Kd in assay [7] (setting [36]), in [8] (setting [36]), in [9] (setting [36]), in assay [10] (setting [36]), in assay [11] (setting [36]) and in assay [12] (setting [36]) was at least 20 µM each time. In addition, the Kd in assay [13] (setting [36]) is at least 20 µM; in assay [14] (setting [36]), at least 20 µM; in assay [15] (setting [36]), 148 nM; in assay [16] (setting [36]), at least 20 µM; in assay [17] (setting [36]), at least 20 µM.

As for SHEGEGIPL, the Kd in [18] (source organism: Influenza A virus (A/X-31(H3N2))) was at least 20000 nM; in [19] it was at least 20 µM; in assay [2] (setting [37]) it was at least 20 µM; in assay [20] (setting [37]) it was at least 20 µM; in [3] (setting [37]), at least 20 µM; in assay [4] (source organism: Influenza A virus(A/swine/Shandong/fZC/2003(H9N2))), at least 20 µM. Moreover, the equilibrium dissociation constant (Kd) in assay [21], in [22] (setting [37]), in assay [7] (setting [37]), in assay [23] (setting [37]), in [24] (setting [37]) and in assay [25] (setting [37]) was at least 20 µM in each case. Besides, the Kd in assay [10] (setting [37]) was at least 20 µM; in assay [11] (setting [37]), at least 20 µM; in assay [26] (setting [37]) it was at least 20 µM; in [12] (setting [37]) it was 0.0995 µM; in assay [15] (setting [37]), at least 20000 nM; in assay [16] (setting [37]) it was at least 20 µM. In [17] (setting [37]), this sequence had a Kd of at least 20 µM.

As for RNMSRIFPY, the Kd in assay [1] (setting [38]), in assay [3] (setting [38]), in assay [5] (setting [38]), in assay [6] (setting [38]), in assay [8] (setting [38]) and in [10] (setting [38]) was at least 20 µM throughout. For the same sequence, the Kd in assay [12] (setting [38]) was at least 20 µM; in assay [13] (setting [38]), at least 20 µM; in assay [15] (setting [38]), 180 nM; in [17] (setting [38]), at least 20 µM.

On to TKAGMAQYL, for which the Kd in [1] (setting [39]) is at least 20 µM; in [2] (setting [39]) it was at least 20 µM; in assay [3] (setting [39]), at least 20 µM; in assay [4] (setting [39]), at least 20 µM; in assay [27] (setting [39]), at least 20000 nM; in assay [5] (setting [39]), at least 20 µM. For the same sequence, the Kd in assay [6] (setting [39]), in assay [7] (setting [39]), in assay [8] (setting [39]), in [28], in [25] (setting [39]) and in assay [9] (setting [39]) was at least 20 µM in each case. Also, the Kd in assay [10] (setting [39]) is at least 20 µM; in assay [13] (setting [39]), at least 20 µM; in [14] (setting [39]), at least 20 µM; in assay [15] (setting [39]) it was at least 20000 nM; in assay [16] (setting [39]) it was at least 20 µM; in assay [17] (setting [39]), at least 20 µM.

Consider RQVWWKALL, for which, in [18] (source organism: Vibrio cholerae MAK 757), the Kd came out at 22.6 nM.

Consider WEITYLGTT, for which the Kd was at least 20 µM in [29]; 0.297 µM in [2] (setting [40]); at least 20 µM in assay [30]; at least 20 µM in [31]; at least 20 µM in [20] (setting [40]); at least 20 µM in [3] (setting [40]). In addition, the Kd was at least 20 µM in [4] (setting [41]); at least 20 µM in assay [32]; at least 20 µM in assay [33]; 3.26 µM in assay [22] (setting [40]); at least 20 µM in [7] (setting [40]); at least 20 µM in assay [34]. The Kd is at least 20 µM in [23] (setting [40]); at least 20 µM in assay [24] (setting [40]); at least 10 µM in assay [25] (setting [40]); at least 20 µM in assay [10] (setting [40]); at least 20 µM in assay [11] (setting [40]); at least 20 µM in assay [26] (setting [40]). In addition, the Kd is at least 20 µM in [12] (setting [41]), at least 20000 nM in assay [15] (setting [40]), at least 20 µM in assay [35] and at least 20 µM in assay [16] (setting [40]).

For the sequence FPLWNTEKI, the Kd in [1] (setting [42]) was at least 20 µM; in [2] (setting [42]), at least 20 µM; in assay [3] (setting [42]) it was at least 20 µM; in assay [4] (setting [42]), at least 20 µM; in assay [27] (setting [42]) it was 71 nM; in assay [5] (setting [42]), at least 20 µM. Further, the Kd in assay [6] (setting [42]), in assay [7] (setting [42]), in assay [8] (setting [42]), in assay [25] (setting [42]), in [13] (setting [42]) and in assay [16] (setting [42]) was at least 20 µM in each case. In assay [17] (setting [42]), this sequence came in with a Kd of at least 20 µM.

Usually Kd stands for the free concentration of one partner at which half of the binding sites on the other are occupied at equilibrium, for simple one-to-one binding. A high value points to weaker binding.
